Laboratory results taken from patent publication US20230322953A1.

Legend:
[1] = target: human CD3 (TCR/CD3 complex) on human T cells (human) (UniProt P07766); assay: flow cytometry (FACS) on human T cells, Experiment 3, isotype control
[2] = target: human CD3 (TCR/CD3 complex) on human T cells (human) (UniProt P07766); assay: flow cytometry (FACS) on human T cells, Experiment 2, isotype control
[3] = target: cynomolgus monkey CD3 (TCR/CD3 complex) on cynomolgus monkey T cells (cynomolgus monkey); assay: flow cytometry (FACS) on cynomolgus monkey T cells, isotype control
Sequence of cynomolgus monkey CD3 (TCR/CD3 complex) on cynomolgus monkey T cells (cynomolgus monkey) (Q95LI5 22-198, one chain of several): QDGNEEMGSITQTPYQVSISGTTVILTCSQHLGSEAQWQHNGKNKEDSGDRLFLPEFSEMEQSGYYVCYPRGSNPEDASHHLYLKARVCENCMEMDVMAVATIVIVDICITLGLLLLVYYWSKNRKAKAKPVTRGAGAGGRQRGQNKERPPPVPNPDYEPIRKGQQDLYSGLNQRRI

Sequence of human CD3 (TCR/CD3 complex) on human T cells (human) (P07766 23-207, one chain of several): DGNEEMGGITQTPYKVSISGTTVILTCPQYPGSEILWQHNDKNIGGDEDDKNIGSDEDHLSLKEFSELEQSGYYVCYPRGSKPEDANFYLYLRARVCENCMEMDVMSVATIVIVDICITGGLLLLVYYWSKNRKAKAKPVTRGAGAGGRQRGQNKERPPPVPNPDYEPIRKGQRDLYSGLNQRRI

Substance hIgG1 iso (CrownBio, #C0001) (antibody) has a Maximum MFI [1] of 3000 MFI, a Maximum MFI [2] of 12 MFI and a Maximum MFI [3] of 794 MFI.
